From the supplement of paper PMC9112550, “Optimization of the antimicrobial peptide Bac7 by deep mutational scanning” (BMC Biology, 2022)

System: Escherichia coli TOP10
Test: shrunken log2 fold change of peptide-encoding DNA abundance (4.5 h post-induction vs induction); higher = less antimicrobial activity (less host growth inhibition)
Details: time post-induction: 4.5 h; library: site-saturation at positions 5, 18, 19, 20
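Further: peptides expressed intracellularly from a pBAD plasmid library in pooled LB shake-flask culture, induced with 0.3% L-arabinose, DNA abundance read by NGS, three biological replicates, DESeq2 with apeglm shrinkage.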

Sequence	shrunken log2 fold change
RRIRQRPPRLPRPRPRPRDVPRP	-0.0705
RRIRGRPPRLPRPRPRPGLMPRP	0.799
RRIRMRPPRLPRPRPRPHRMPRP	-0.0254
RRIRGRPPRLPRPRPRPMATPRP	1.37
RRIRYRPPRLPRPRPRPAHVPRP	-0.144
RRIRLRPPRLPRPRPRPVYSPRP	-0.881
RRIRQRPPRLPRPRPRPWLQPRP	0.188
RRIRMRPPRLPRPRPRPHTFPRP	-0.384
RRIRTRPPRLPRPRPRPRDCPRP	0.057
RRIRKRPPRLPRPRPRPSCHPRP	-0.132
RRIRTRPPRLPRPRPRPRHMPRP	-0.115
RRIRYRPPRLPRPRPRPCECPRP	-0.0717
RRIRYRPPRLPRPRPRPFVNPRP	0.017
RRIRSRPPRLPRPRPRPDAQPRP	0.406
RRIRVRPPRLPRPRPRPMRCPRP	0.204
RRIRVRPPRLPRPRPRPCYWPRP	-0.0621
RRIRERPPRLPRPRPRPLHEPRP	-0.65
RRIRQRPPRLPRPRPRPQLVPRP	0.128
RRIRFRPPRLPRPRPRPFIIPRP	-0.816
RRIRWRPPRLPRPRPRPFEEPRP	0.43
RRIRARPPRLPRPRPRPCDWPRP	0.353
RRIRDRPPRLPRPRPRPPWNPRP	-0.0258
RRIRGRPPRLPRPRPRPNPTPRP	0.602

Sequence	shrunken log2 fold change
RRIRVRPPRLPRPRPRPKWMPRP	-0.0468
RRIRSRPPRLPRPRPRPFTYPRP	-0.0179
RRIRERPPRLPRPRPRPSDLPRP	-0.151
RRIRDRPPRLPRPRPRPPPAPRP	0.924
RRIRWRPPRLPRPRPRPLTMPRP	0.0382
RRIRHRPPRLPRPRPRPNQSPRP	-0.3
RRIRHRPPRLPRPRPRPGHPPRP	-0.00757
RRIRKRPPRLPRPRPRPNDMPRP	0.194
RRIRHRPPRLPRPRPRPPEMPRP	0.484
RRIRKRPPRLPRPRPRPKTMPRP	0.185
RRIRARPPRLPRPRPRPGWWPRP	0.235
RRIRLRPPRLPRPRPRPWSFPRP	0.018
RRIRTRPPRLPRPRPRPWARPRP	-0.00874
RRIRHRPPRLPRPRPRPDRCPRP	-0.205
RRIRMRPPRLPRPRPRPQANPRP	0.271
RRIRTRPPRLPRPRPRPQGYPRP	-0.943
RRIRFRPPRLPRPRPRPDASPRP	0.146
RRIRFRPPRLPRPRPRPTHQPRP	2.65
RRIRERPPRLPRPRPRPTYYPRP	-0.614
RRIRPRPPRLPRPRPRPKWAPRP	0.0222
RRIRYRPPRLPRPRPRPPNMPRP	-0.863
RRIRDRPPRLPRPRPRPEIGPRP	0.765
RRIRIRPPRLPRPRPRPSRKPRP	-0.148

Sequence	shrunken log2 fold change
RRIRTRPPRLPRPRPRPNVYPRP	-0.683
RRIRKRPPRLPRPRPRPNQWPRP	0.274
RRIRFRPPRLPRPRPRPKYHPRP	-0.428
RRIRNRPPRLPRPRPRPRVYPRP	-0.0128
RRIRPRPPRLPRPRPRPIYVPRP	-0.348
RRIRKRPPRLPRPRPRPHYLPRP	0.0182
RRIRIRPPRLPRPRPRPLYHPRP	-0.761
RRIRWRPPRLPRPRPRPFNPPRP	-0.389
RRIRVRPPRLPRPRPRPSTSPRP	-0.0898
RRIRFRPPRLPRPRPRPPEWPRP	0.139
RRIRERPPRLPRPRPRPYTNPRP	-0.172
RRIRQRPPRLPRPRPRPTKPPRP	0.0859
RRIRNRPPRLPRPRPRPDYKPRP	0.0574
RRIRVRPPRLPRPRPRPIPPPRP	-0.2
RRIRVRPPRLPRPRPRPNGTPRP	-0.356
RRIRWRPPRLPRPRPRPEFMPRP	0.635
RRIRQRPPRLPRPRPRPHCQPRP	-0.39
RRIRFRPPRLPRPRPRPQHEPRP	-0.25
RRIRERPPRLPRPRPRPPYWPRP	0.0536
RRIRWRPPRLPRPRPRPYVSPRP	-0.0404
RRIRFRPPRLPRPRPRPMMNPRP	-0.77
RRIRNRPPRLPRPRPRPIMYPRP	-0.309
RRIRDRPPRLPRPRPRPQCSPRP	0.0391

Sequence	shrunken log2 fold change
RRIRVRPPRLPRPRPRPDLTPRP	-0.263
RRIRIRPPRLPRPRPRPQRAPRP	-0.249
RRIRGRPPRLPRPRPRPVTSPRP	0.203
RRIRERPPRLPRPRPRPHDMPRP	-0.0911
RRIRERPPRLPRPRPRPFVMPRP	-0.345
RRIRPRPPRLPRPRPRPIFQPRP	0.0149
RRIRWRPPRLPRPRPRPCDLPRP	-0.286
RRIRARPPRLPRPRPRPWVDPRP	-0.0331
RRIRYRPPRLPRPRPRPYGAPRP	-0.202
RRIRIRPPRLPRPRPRPVQAPRP	0.0348
RRIRGRPPRLPRPRPRPGWHPRP	0.277
RRIRIRPPRLPRPRPRPNHKPRP	-0.857
RRIRWRPPRLPRPRPRPKWHPRP	0.184
RRIRARPPRLPRPRPRPQNKPRP	-0.232
RRIRERPPRLPRPRPRPQMRPRP	0.0123
RRIRKRPPRLPRPRPRPTRTPRP	0.951
RRIRVRPPRLPRPRPRPMPTPRP	0.282
RRIRWRPPRLPRPRPRPNVNPRP	-0.171
RRIRQRPPRLPRPRPRPPVQPRP	0.301
RRIRGRPPRLPRPRPRPVNTPRP	0.0713
RRIRFRPPRLPRPRPRPIDSPRP	-0.401
RRIRQRPPRLPRPRPRPADEPRP	-0.101
